US20200010841

Molecular target: T1, HFR1^n-131aa-TBPm3 conjugated protein (UniProt Q9FE22)
T1 sequence: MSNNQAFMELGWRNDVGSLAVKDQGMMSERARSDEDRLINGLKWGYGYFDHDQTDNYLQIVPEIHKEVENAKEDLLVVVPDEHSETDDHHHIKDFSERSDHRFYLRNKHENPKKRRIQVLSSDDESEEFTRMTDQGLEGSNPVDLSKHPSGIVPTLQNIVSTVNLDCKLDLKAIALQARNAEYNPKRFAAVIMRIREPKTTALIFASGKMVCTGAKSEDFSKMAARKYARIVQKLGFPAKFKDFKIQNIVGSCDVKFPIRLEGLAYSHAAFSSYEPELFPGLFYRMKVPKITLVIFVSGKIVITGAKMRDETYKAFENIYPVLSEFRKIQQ

Q: Which results are given for “COP1^L105A (Constitutive photomorphogenic1 with amino acid mutation Leu to Ala)”?
A: Histochemical GUS staining of post-meiotic anther tapetum, ES transgenic versus F1 [ES x RS]: no staining was appear in the F1 tapetum of the same anther stage; Relative expression of BECLIN1 transcript (qRT-PCR) in anther developmental stages of F1 [MS x RS]: When expression of BECLIN1 was checked in different anther developmental stages, it was found that their expression was abolished
